Data from patent EP4725963A1.

Target: human NPR1 full-length protein overexpressed on CHO-K1 cells (human) (UniProt P16066)
Test: cell-based or functional assay

Sequence of human NPR1 full-length protein overexpressed on CHO-K1 cells (human) (P16066 33-1061): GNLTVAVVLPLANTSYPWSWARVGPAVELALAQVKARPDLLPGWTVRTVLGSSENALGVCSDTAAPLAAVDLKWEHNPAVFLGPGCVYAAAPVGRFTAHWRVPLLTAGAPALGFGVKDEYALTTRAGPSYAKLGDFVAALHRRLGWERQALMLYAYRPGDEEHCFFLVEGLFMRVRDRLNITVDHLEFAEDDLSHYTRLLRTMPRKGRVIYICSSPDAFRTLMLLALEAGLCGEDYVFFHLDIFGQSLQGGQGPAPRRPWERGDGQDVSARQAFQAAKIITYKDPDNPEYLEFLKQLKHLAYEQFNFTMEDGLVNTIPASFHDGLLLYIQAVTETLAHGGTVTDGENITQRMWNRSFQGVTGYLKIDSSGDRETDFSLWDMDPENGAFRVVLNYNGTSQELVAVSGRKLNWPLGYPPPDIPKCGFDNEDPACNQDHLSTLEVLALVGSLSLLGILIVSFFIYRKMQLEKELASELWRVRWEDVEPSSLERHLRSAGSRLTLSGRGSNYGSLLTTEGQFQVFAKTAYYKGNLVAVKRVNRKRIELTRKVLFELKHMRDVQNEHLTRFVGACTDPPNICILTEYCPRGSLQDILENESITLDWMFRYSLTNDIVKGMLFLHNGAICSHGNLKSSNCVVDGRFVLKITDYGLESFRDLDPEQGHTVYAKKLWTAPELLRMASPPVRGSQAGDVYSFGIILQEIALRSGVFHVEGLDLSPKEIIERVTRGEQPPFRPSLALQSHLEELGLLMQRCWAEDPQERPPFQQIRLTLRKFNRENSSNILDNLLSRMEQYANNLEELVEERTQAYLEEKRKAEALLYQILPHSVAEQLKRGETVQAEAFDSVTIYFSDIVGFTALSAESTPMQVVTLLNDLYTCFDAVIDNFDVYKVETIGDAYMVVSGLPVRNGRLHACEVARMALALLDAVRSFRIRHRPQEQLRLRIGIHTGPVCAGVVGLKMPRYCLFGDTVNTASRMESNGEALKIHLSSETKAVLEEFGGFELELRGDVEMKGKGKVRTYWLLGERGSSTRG

Ratio (without ANP) of NPR1 antigens remaining on the cell surface after endocytosis to the initial number, 10 min, 20 µg/mL: 0.56
Ratio (without ANP) of NPR1 antigens remaining on the cell surface after endocytosis to the initial number, 1 h, 20 µg/mL: 0.46
Ratio (without ANP) of NPR1 antigens remaining on the cell surface after endocytosis to the initial number, 7 hrs, 20 µg/mL: 0.3
Ratio (without ANP) of NPR1 antigens remaining on the cell surface after endocytosis to the initial number, 24 hrs, 20 µg/mL: 0.39
Sum of signal changes (cGMP production in cells before and after endocytosis treatment): 1.08
Substance: REGN-5381 (antibody)
